One experiment concerns the target T1, PDGF-BB (Homo sapiens, UniProt P01127).
T1 construct: All growth factors (GFs) and chemokines were purchased in their mature forms; purchased PeproTech; host or cells: Escherichia coli
Put plainly: Surface plasmon resonance, vWF against GF. The conditions noted are these: SPR; vWF immobilized; two estimated binding sites, heterogeneous ligand-parallel reaction fit; read-out: lowest KD value for PDGF-BB. How it is done:
(§1) SPR assays were performed as described previously2. In brief, measurements were made with a Biacore X100 SPR system or Biacore 3000 SPR system (GE Healthcare). Plasma-derived vWF was immobilized via amine coupling on a C1 chip (GE Healthcare) for 2000 resonance units (RU) according to the manufacturer's instructions. Recombinant human VEGF-A165, VEGF-A121, or PDGF-BB was flowed at increasing concentrations in the running buffer at 30 μL/min. The sensor chip was regenerated with glycine at pH 2 for every cycle. Specific binding of GFs to vWF was calculated automatically using the response to a non-functionalized channel as a reference. Binding curves were fitted using BIAevalution software (GE Healthcare). vWF-VEGF-A165 binding results were fitted with Langmuir binding kinetics (1:1 binding with drifting baseline Rmax local). vWF-PDGF-BB binding results were fitted with heterogeneous ligand-parallel reaction.

A further experiment addresses T2, VEGF-A165 (Homo sapiens, UniProt P15692).
T2 construct: All growth factors (GFs) and chemokines were purchased in their mature forms; purchased PeproTech; host or cells: Escherichia coli
T2 sequence (P15692 27-191 isoform P15692-4 limits assumed): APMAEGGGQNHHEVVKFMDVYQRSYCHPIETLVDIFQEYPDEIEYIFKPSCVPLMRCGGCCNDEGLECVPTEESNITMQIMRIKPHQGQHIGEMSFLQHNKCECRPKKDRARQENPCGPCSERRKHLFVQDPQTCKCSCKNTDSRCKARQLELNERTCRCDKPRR
In words: Surface plasmon resonance, vWF against GF. The experiment is classed as binding. To be noted: SPR; vWF immobilized; 1:1 Langmuir fit, single KD; read-out: dissociation constant (KD value) for VEGF-A165. How it is done: as §1
(In general: Surface plasmon resonance follows binding to a sensor surface in real time, without labels.)

Experiment [1] deals with T3, VEGF-A121 (Homo sapiens, UniProt P15692).
T3 sequence (P15692 27-147 isoform P15692-9 limits assumed): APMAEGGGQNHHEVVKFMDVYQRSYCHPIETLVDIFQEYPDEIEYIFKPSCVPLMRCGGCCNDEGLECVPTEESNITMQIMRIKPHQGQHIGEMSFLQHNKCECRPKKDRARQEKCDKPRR
Put plainly: vWF binding to recombinant GFs (ELISA). On the set-up: All GFs and chemokines were purchased in their mature forms; purchased PeproTech; host or cells: Escherichia coli. The conditions noted are these: non-binding reference. The procedure:
(§2) ELISA tests were performed as previously reported1. In brief, ELISA plates (med-binding, Greiner Bio-One) were coated with 50 nM GFs at 37° C. for 2 hrs. After blocking with 2% BSA solution containing PBS-T, 1 μg/mL of plasma-derived vWF (EMD Millipore) was added. Bound vWF was detected with 1 μg/mL of rabbit anti-human vWF antibody (Sino Biological). Then, HRP conjugated goat anti-rabbit antibody (Jackson ImmunoResearch) was added. After 60 min of incubation, 50 μL TMB substrate (Sigma-Aldrich) was added. The reaction was stopped by adding 25 μL of 2N H2SO4. Subsequently, the absorbance at 450 nm was measured and subtracted the absorbance at 570 nm.
In general terms: In an ELISA, binding on a coated surface is turned into a signal by an enzyme label.

Another experiment concerns the target T4, BMP-2 (Homo sapiens, UniProt P12643).
T4 sequence (P12643 283-396): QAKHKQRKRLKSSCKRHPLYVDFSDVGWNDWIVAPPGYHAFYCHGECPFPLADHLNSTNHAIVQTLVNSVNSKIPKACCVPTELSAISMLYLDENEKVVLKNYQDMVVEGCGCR
In words: vWF binding to recombinant GFs (ELISA). More on the design: All GFs and chemokines were purchased in their mature forms; purchased PeproTech; host or cells: Escherichia coli. The conditions noted are these: VEGF-A121 signal as baseline. How it is done: as §2

The target in the next experiment is FGF-2 (Homo sapiens, UniProt P09038). In words: vWF binding to recombinant GFs (ELISA). To be noted: VEGF-A121 signal as baseline. More on the design: All GFs and chemokines were purchased in their mature forms; purchased PeproTech; host or cells: Escherichia coli. How it is done: as §2
Another experiment addresses T5, PlGF-2 (Homo sapiens, UniProt P49763).
T5 sequence (P49763 19-170 isoform P49763-3 limits assumed): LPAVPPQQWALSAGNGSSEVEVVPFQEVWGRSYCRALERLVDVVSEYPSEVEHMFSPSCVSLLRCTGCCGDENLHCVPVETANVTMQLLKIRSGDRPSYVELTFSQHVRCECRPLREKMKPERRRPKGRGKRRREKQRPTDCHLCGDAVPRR
Put plainly: vWF binding to recombinant GFs (ELISA). More on the design: All GFs and chemokines were purchased in their mature forms; purchased PeproTech; host or cells: Escherichia coli. The conditions noted are these: VEGF-A121 signal as baseline. The procedure:
as §2

Experiment [2] has as its target T3, VEGF-A121. In words: Surface plasmon resonance, vWF against GF. The experiment is classed as binding. More on the design: All growth factors (GFs) and chemokines were purchased in their mature forms; purchased PeproTech; host or cells: Escherichia coli. To be noted: vWF immobilized, VEGF-A121 50-800 nM. How it is done:
as §1

Another experiment has as its target T6, NT-3 (Homo sapiens, UniProt P20783).
T6 construct: All GFs and chemokines were purchased in their mature forms; purchased PeproTech; host or cells: Escherichia coli
T6 sequence (P20783 139-257): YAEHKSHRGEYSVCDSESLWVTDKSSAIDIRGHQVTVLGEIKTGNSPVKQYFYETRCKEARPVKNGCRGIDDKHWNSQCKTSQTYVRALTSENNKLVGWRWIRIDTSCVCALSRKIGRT
Put plainly: vWF binding to recombinant GFs (ELISA). The conditions noted are these: VEGF-A121 signal as baseline. The procedure: as §2

The target of the next experiment is T7, CXCL-12γ (Homo sapiens, UniProt P48061).
T7 construct: All GFs and chemokines were purchased in their mature forms; purchased R & D Systems; host or cells: Escherichia coli
Put plainly: vWF binding to recombinant GFs (ELISA). To be noted: VEGF-A121 signal as baseline. The procedure: as §2

The target in a further experiment is T8, FGF-18 (Homo sapiens, UniProt O76093).
T8 construct: All GFs and chemokines were purchased in their mature forms; purchased PeproTech; host or cells: Escherichia coli
T8 sequence (O76093 28-207): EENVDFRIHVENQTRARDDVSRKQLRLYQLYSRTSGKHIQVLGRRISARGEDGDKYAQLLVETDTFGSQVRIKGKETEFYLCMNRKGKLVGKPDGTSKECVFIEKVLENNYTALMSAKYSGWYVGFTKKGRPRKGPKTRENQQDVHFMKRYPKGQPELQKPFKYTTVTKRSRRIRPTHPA
Put plainly: vWF binding to recombinant GFs (ELISA). The conditions noted are these: VEGF-A121 signal as baseline. How it is done:
as §2

“Also recorded” adds a separate entry of the source.

These results are taken from US11732029B2, “Methods and compositions for the treatment of wounds” (The University of Chicago, priority 2017, dated 2023).

T7 sequence (P48061 22-119 isoform P48061-3): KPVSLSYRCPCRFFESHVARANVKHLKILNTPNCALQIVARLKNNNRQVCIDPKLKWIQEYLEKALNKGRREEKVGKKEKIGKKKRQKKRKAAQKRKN
Chain of FGF-2 (P09038 143-288): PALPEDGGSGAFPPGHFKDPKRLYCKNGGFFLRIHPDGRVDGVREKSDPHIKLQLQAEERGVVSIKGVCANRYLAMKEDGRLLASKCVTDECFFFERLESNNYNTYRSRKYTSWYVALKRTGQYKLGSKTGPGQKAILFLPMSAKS
T1 sequence (P01127 82-190 limits assumed): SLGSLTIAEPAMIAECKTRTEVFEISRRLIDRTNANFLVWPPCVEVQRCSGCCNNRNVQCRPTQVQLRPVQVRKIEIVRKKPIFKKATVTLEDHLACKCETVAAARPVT

With “vWF: human plasma-derived von Willebrand factor (EMD Millipore)”, the Kd with PDGF-BB is 24 nM; with VEGF-A165 it was 27 nM. Besides, the “vWF binding to VEGF-A121” value with VEGF-A121 [1] is on record as “not”. Also, the “vWF binding to BMP-2” value with BMP-2 is recorded as “strong binding”. Besides, in the experiment with FGF-2, the “vWF binding to FGF-2” value is given as “bound”. Moreover, the “vWF binding to PlGF-2” value in the experiment with PlGF-2 is listed as “bound”. The “binding to VEGF-A121 by SPR” value with VEGF-A121 [2] is “did not show significant binding; also recorded: No binding was observed”. In addition, the “vWF binding to NT-3” value in the experiment with NT-3 is “relevant binding”. Besides, the “vWF binding to CXCL-12γ” value with CXCL-12γ is on record as “strong binding signal”. Moreover, the “vWF binding to FGF-18” value in the experiment with FGF-18 is listed as “bound”.

As usually defined, the Kd is the free concentration of one partner at which half of the binding sites on the other are occupied at equilibrium, for simple one-to-one binding.
